The record followed here is US12202861B2, “Inducible, tunable, and multiplex human gene regulation using CRISPR-Cpf1” (The General Hospital Corporation, priority 2017, dated 2025).

Holding throughout (assay type): cell-based, human
Data set [1] has as its system HBB. The experiment in a line: RT-qPCR activation of endogenous HBB gene promoter in HEK293 cells. The conditions noted are these: single crRNA. How it is done: (§1) FIGS. 1A-1E. Targeted human endogenous gene regulation using individual crRNAs with dLbCpf1-based activators • (A) Schematic showing direct dLbCpf1-VPR and dLbCpf-p65 activator fusion proteins. • (B) Activities of dLbCpf1-p65 or dLbCpf1-VPR using single crRNAs at three endogenous human genes (HBB, AR, and NPY1R) in human HEK293 cells. Relative activation of the indicated gene promoters was measured by RT-qPCR. Three separate individual crRNAs were targeted within promoter sequence 1 kb upstream of the transcription start site for each gene. Relative mRNA expression is calculated by comparison to the control sample in which no crRNA is expressed. (C) Analysis of various crRNAs targeted to the human CD5 and CD22 promoters. 32 crRNAs (16 for each gene) were designed to target sites located within promoter sequences 1 kb upstream or 500 bps downstream of the TSS of each gene. Repetitive sequences were not targeted. After 72 hours post-transfection, cells were stained with fluorescently labeled antibody for CD5 or CD22 protein and fluorescent-positive cells were quantified by flow cytometry. Error bars represent s.e.m. for three biological replicates. […] (D) Schematic illustrating drug-inducible bi-partite dLbCpf1-based activator fusion proteins. dLbCpf1 is fused to one to four DmrA domains and VPR or p65 is fused to a DmrC domain. Because DmrA and DmrC interact only in the presence of an A/C-heterodimerizer drug (red diamond), the bi-partite activator is only reconstituted in the presence of the drug. (E) Activities of drug-inducible bi-partite dLbCpf1-based activators using single crRNAs at three endogenous human genes (HBB, AR, and NPY1R) in human HEK293 cells. Relative activation of the indicated gene promoters was measured by RT-qPCR. […] Data shown in (B) and (E) represent three biological independent replicates and error bars indicate standard deviation (SD) of three technical replicates.
(§2) (A) Schematic of an expression cassette designed to express multiple gRNAs encoded on a single transcript. The arrows indicate cleavage sites being processed by the RNase activity of dLbCpf1. (B) Schematic illustrating multiplex expression of three crRNAs each targeted to a different endogenous gene promoter in a single cell. (C) Simultaneous activation of three endogenous human genes using crRNAs expressed from a multiplex transcript or from individual transcripts with dLbCpf1-VPR direct fusions (left panel), dLbCpf1-DmrA(×4) and DmrC-VPR fusions (middle panel), and dLbCpf1-DmrA(×4) and DmrC-p65 fusions (right panel). Transcripts were measured in HEK293 cells using RT-qPCR with relative mRNA expression calculated by comparison to the control sample in which no crRNA is expressed. (D) Activities of MST crRNA with different dLbCpf1-based activators in human U20S cells. Graphs showing activation of three endogenous human genes with dLbCpf1-VPR direct fusions, dLbCpf1-DmrA(×4) and DmrC-p65 fusions, and dLbCpf1-DmrA(×4) and DmrC-VPR fusions and crRNAs expressed from a multiplex single transcript (MST) or from transcripts encoding a single crRNA. RNA expression was measured by RT-qPCR and relative expression shown was calculated by comparison to a control sample in which no crRNA is expressed. (E) Schematic illustrating multiplex expression of three crRNAs each targeted to the same endogenous gene promoter in the same cell. (F) Activities of direct dLbCpf1-p65 or dLbCpf1-VPR fusions with sets of three crRNAs expressed from a multiplex transcript or from individual transcripts on the HBB, AR, or NPY1R endogenous gene promoters. Transcripts were measured in HEK293 cells using RT-qPCR with relative mRNA expression calculated by comparison to the control sample in which no crRNA is expressed. (G) Activities of dLbCpf1-DmrA(×4) and DmrC-VPR fusions or with dLbCpf1-DmrA(×4) and DmrC-p65 fusions with sets of three crRNAs expressed from a multiplex transcript or from individual transcripts on the HBB, AR, or NPY1R endogenous gene promoters. […]

In the next data set the test system is AR. The experiment in a line: RT-qPCR activation of endogenous AR gene promoter in HEK293 cells. As to conditions: single crRNA. On the procedure:
as §1
(A) Schematic of an expression cassette designed to express multiple gRNAs encoded on a single transcript. The arrows indicate cleavage sites being processed by the RNase activity of dLbCpf1. (B) Schematic illustrating multiplex expression of three crRNAs each targeted to a different endogenous gene promoter in a single cell. […] Transcripts were measured in HEK293 cells using RT-qPCR with relative mRNA expression calculated by comparison to the control sample in which no crRNA is expressed. […] RNA expression was measured by RT-qPCR and relative expression shown was calculated by comparison to a control sample in which no crRNA is expressed. […] Transcripts were measured in HEK293 cells using RT-qPCR with relative mRNA expression calculated by comparison to the control sample in which no crRNA is expressed. […]

The subject of another data set is NPY1R. The experiment in a line: RT-qPCR activation of endogenous NPY1R gene promoter in HEK293 cells. The conditions noted are these: single crRNA. How it is done: as §1, §2
Data set [2] deals with HBB. The experiment in a line: RT-qPCR activation of HBB in U2OS cells. As to conditions: MST crRNAs and single crRNAs. The source says: (A) Schematic of an expression cassette designed to express multiple gRNAs encoded on a single transcript. The arrows indicate cleavage sites being processed by the RNase activity of dLbCpf1. (B) Schematic illustrating multiplex expression of three crRNAs each targeted to a different endogenous gene promoter in a single cell. (C) Simultaneous activation of three endogenous human genes using crRNAs expressed from a multiplex transcript or from individual transcripts with dLbCpf1-VPR direct fusions (left panel), dLbCpf1-DmrA(×4) and DmrC-VPR fusions (middle panel), and dLbCpf1-DmrA(×4) and DmrC-p65 fusions (right panel). Transcripts were measured in HEK293 cells using RT-qPCR with relative mRNA expression calculated by comparison to the control sample in which no crRNA is expressed. […] RNA expression was measured by RT-qPCR and relative expression shown was calculated by comparison to a control sample in which no crRNA is expressed. […] Transcripts were measured in HEK293 cells using RT-qPCR with relative mRNA expression calculated by comparison to the control sample in which no crRNA is expressed. […] Transcripts were measured in HEK293 cells using RT-qPCR with relative mRNA expression calculated by comparison to the control sample in which no crRNA is expressed. […] Cells were collected at various time points and relative mRNA expression levels were measured by RT-qPCR compared to a negative control. […]

The mark [3] stands for this setting: bi-partite with dLbCpf1-DmrA fusions.
[4] abbreviates: bi-partite with dLbCpf1-DmrA fusions, A/C heterodimerizer.
The mark [5] stands for this setting: bi-partite, with dLbCpf1 fusions harboring two, three or four DmrA domains.

B1: DmrC-p65: CAG-DmrC-NLS-FLAG-P65; DmrC dimerization domain fused to p65 activation domain (SEQ ID NO: 50) (protein)
chain: MGSRILWHEMWHEGLEEASRLYFGERNVKGMFEVLEPLHAMMERGPQTLKETSFNQAYGRDLMEAQEWCRKYMKSGNVKDLLQAWDLYYHVFRRISKGGGSPKKKRKVSSDYKDHDGDYKDHDIDYKDDDDKAAGGGGSGSEASGSGRADALDDFDLDMLGSDALDDFDLDMLGSDALDDFDLDMLGSDALDDFDLDMLINSRSSGSPKKKRKVGSQYLPDTDDRHRIEEKRKRTYETFKSIMKKSPFSGPTDPRPPPRRIAVPSRSSASVPKPAPQPYPFTSSLSTINYDEFPTMVFPSGQISQASALAPAPPQVLPQAPAPAPAPAMVSALAQAPAPVPVLAPGPPQAVAPPAPKPTQAGEGTLSEALLQLQFDDEDLGALLGNSTDPAVFTDLASVDNSEFQQLLNQGIPVAPHTTEPMLMEYPEAITRLVTGAQRPPDPAPAPLGAPGLPNGLLSGDEDFSSIADMDFSALLGSGSGSRDSREGMFLPKPEAGSAISDVFEGREVCQPKRIRPFHPPGSPWANRPLPASLAPTPTGPVHEPVGSLTPAPVPQPLDPAPAVTPEASHLLEDPDEETSQAVKALREMADTVIPQKEEAAICGQMDLSHPPPRGHLDELTTTLESMTEDLNLDSPLTPELNEILDTFLNDECLLHAMHISTGLSIFDTSLF
modifications: misc_feature 1..2016 MMW948: CAG-DmrC-NLS-FLAG-VPR
B1: the “dependence of maximal activation on A/C heterodimerizer drug” value with HBB [1] (setting [3]), in the data set on AR (setting [3]) and in the data set with NPY1R (setting [3]) was “dependent on the presence of A/C heterodimerizer drug” throughout. The “level of activation somewhat less than that obtained with DmrC-VPR” value is approximately 50% in the data set on HBB [1] (setting [3]) and approximately 30% in the data set with NPY1R (setting [3]). Besides, the entries for the “fold activation of transcription” value in the data set on HBB [1] (setting [4]), with AR (setting [4]) and in the data set on NPY1R (setting [4]) were approximately 20 fold, approximately 25 fold and approximately 10 fold, respectively. Besides, the activation of transcription entry in the data set with HBB [1] (setting [5]), with AR (setting [5]) and in the data set with NPY1R (setting [5]) was “could robustly activate transcription” in each case. For the same molecule, in the data set with HBB [2], the “gene activation (relative RNA expression)” value is reported as “even greater than in HEK293s”.
